Literature values, collected in publication PMC5067215.
pKd: −log10 of the molar value.

Biological target: CD74 (Homo sapiens) (UniProt P04233)
UniProt P04233, sequence (P04233 73-296): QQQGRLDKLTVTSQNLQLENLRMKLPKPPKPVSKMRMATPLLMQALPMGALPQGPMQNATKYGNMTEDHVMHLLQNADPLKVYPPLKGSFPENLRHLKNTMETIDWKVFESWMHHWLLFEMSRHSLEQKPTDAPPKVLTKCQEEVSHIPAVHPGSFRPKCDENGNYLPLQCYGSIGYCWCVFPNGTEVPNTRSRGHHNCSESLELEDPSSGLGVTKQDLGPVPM

pKd: 8.27
Substance: D-DT (from UniProt P30046)
